For data set [1], the system named is coculture of antigen presenting cells and CD4 T cell clones (“OT-II cells”). In words: IFNγ and IL-17 in supernatant of coculture of antigen presenting cells and OT-II CD4 T cell clones. Type of data set: cell-based. To be noted: D1 in particles of Compound 113 with D2 Compound 166, with or without D3 Compound 4 (Table 10). On the procedure: The cell culture supernatant was assessed for the cytokines IFNγ and IL-17 to assess for the proliferation of Th1- and Th17-type CD4 T cells, respectively (FIG. 11).

Data set [2] in a line: Turbidity (OD 490 nm) of particle formulations. The note with it: Table 15; no 2nd amphiphile. It counts as physicochemical. On the procedure: It was unknown how the surface group (SG) would impact the tolerability of amphiphiles of formula S-B-H-D carrying an immunostimulant. Therefore, to evaluate the impact of surface group composition on tolerability, amphiphiles of varying SG and drug molecule composition were prepared and evaluated in mice (Table 15 and FIG. 14).

Data set [3] is described as follows: Solubility and loading of mTOR inhibitors in nanoparticle micelles of amphiphiles S-B-[U]-H. It counts as physicochemical. The note with it: admixed with amphiphile Compound 113.
Data set [4] relates to coculture of antigen presenting cells and CD4 T cell clones (“OT-II cells”). Put plainly: CD4 T cell induction in coculture of antigen presenting cells and OT-II CD4 T cell clones. To be noted: D1 in particles of Compound 113 with D2 Compound 166 and D3 MDP, TDB, MPL, LPS or Compound 4 (Table 9, FIG. 10). It counts as cell-based.
For data set [5], the system named is T1, Ac-A′SPVB-AMC (Compound 15).
T1 sequence: XSPVX

The subject of data set [6] is T2, Ac-A′SK(Ac)VnL-AMC (Compound 22).
T2 sequence: XSKVX

Data set [7] relates to T3, Ac-A′VnL-AMC (Compound 20).
T3 sequence: XVX

For data set [8], the system named is T4, Ac-A′SKVB-AMC (Compound 17).
T4 sequence: XSKVX

Data set [9] deals with T5, Ac-A′SK(Ac)VB-AMC (Compound 16).
T5 sequence: XSKVX

Data set [10] concerns T6, Ac-A′SKSB-AMC (Compound 19).
T6 sequence: XSKSX

For data set [11], the system named is T7, Ac-A′SKSnL-AMC (Compound 25).
T7 sequence: XSKSX

The test system of data set [12] is T8, Ac-A′VB-AMC (Compound 14).
T8 sequence: XVX

In data set [13] the test system is T9, Ac-A′SK(Ac)SB-AMC (Compound 18).
T9 sequence: XSKSX

The subject of data set [14] is T10, Ac-A′SPVnL-AMC (Compound 21).
T10 sequence: XSPVX

Data set [15] deals with T11, Ac-A′SKVnL-AMC (Compound 23).
T11 sequence: XSKVX

For data set [16], the system named is T12, Ac-A′SK(Ac)SnL-AMC (Compound 24).
T12 sequence: XSKSX

For the molecule `COc1ccc(-c2ccc3c(N4CCOC[C@@H]4C)nc(N4CCOC[C@@H]4C)nc3n2)cc1CO` [AZD8055], the “suppression of Th1-type CD4 T cell response (IFNγ)” value (“suppression … (IFNγ)” below) in data set [1] is “substantially improved T cell response suppression as compared with Rapa, CC223 and OSI-027”.

In the case of `CCOCc1nc2c(N)nc3ccccc3c2n1CC(C)(C)O` [Compound R848], in data set [2], the Turbidity came to 0.039.

For `CC(C)n1nc(-c2ccc3oc(N)nc3c2)c2c(N)ncnc21` [INK-128], the “suppression … (IFNγ)” value in data set [1] was “substantially improved T cell response suppression as compared with Rapa, CC223 and OSI-027”.

On to `CCC(=O)N1CCN(c2ccc(-n3c(=O)ccc4cnc5ccc(-c6cnc7ccccc7c6)cc5c43)cc2C(F)(F)F)CC1` [Torin 1], for which the “solubility in DMSO and aqueous buffer” value in [3] is on record as “markedly improved the solubility”. For the same molecule, the “suppression of T cell responses against D2” value in data set [4] is listed as “greater T cell suppression as compared with Rapamycin”. Besides, the “suppression … (IFNγ)” value in data set [1] was “substantially improved T cell response suppression as compared with Rapa, CC223 and OSI-027”.

`CNC(=O)Nc1ccc(-c2nc(N3CC4CCC(C3)O4)c3cnn(C4CCC5(CC4)OCCO5)c3n2)cc1` [WYE132]: in data set [1], the “suppression … (IFNγ)” value is “substantially improved T cell response suppression as compared with Rapa, CC223 and OSI-027”.

On to Cathepsin B (Sino Biological), for which the “percent of peptide-AMC that is cleaved” value in data set [5] is “norleucine (nL) and alpha-amino butyric (B or aBut) are tolerated at the P1 position”; in data set [6] it was “norleucine (nL) and alpha-amino butyric (B or aBut) are tolerated at the P1 position”; in data set [7], “norleucine (nL) and alpha-amino butyric (B or aBut) are tolerated at the P1 position”; in data set [8], “norleucine (nL) and alpha-amino butyric (B or aBut) are tolerated at the P1 position”; in [9] it was “norleucine (nL) and alpha-amino butyric (B or aBut) are tolerated at the P1 position”; in data set [10], “norleucine (nL) and alpha-amino butyric (B or aBut) are tolerated at the P1 position”. The “percent of peptide-AMC that is cleaved” value in [11] was “norleucine (nL) and alpha-amino butyric (B or aBut) are tolerated at the P1 position”; in [12], “norleucine (nL) and alpha-amino butyric (B or aBut) are tolerated at the P1 position”; in [13], “norleucine (nL) and alpha-amino butyric (B or aBut) are tolerated at the P1 position”; in data set [14], “norleucine (nL) and alpha-amino butyric (B or aBut) are tolerated at the P1 position”; in data set [15] it was “norleucine (nL) and alpha-amino butyric (B or aBut) are tolerated at the P1 position”; in data set [16], “norleucine (nL) and alpha-amino butyric (B or aBut) are tolerated at the P1 position”.

The values are drawn from patent US20240382614A1, “Self-Assembling Nanoparticles Based On Amphiphilic Peptides for Drug Delivery Applications” (Barinthus Biotherapeutics North America, Inc., priority 2021, published 2024).
